Experimental findings from article PMC7183857 are described below.

This test concerns the target CA_(E180A) and CA_(E187A). In words: co-sedimentation.

With “MxB_(1–35)-MBPdi (from UniProt P20592 1-35)”, the binding as percent of WT CA tubes was 73 to 83 % of WT.
